Substitutions are numbered along the chain they refer to.
Assays:
[1] = molecular target: human PD-L1 expressed on cells (human, UniProt Q9NZQ7 19-290); test: cell-based or functional assay
[2] = molecular target: T1, human CD137 expressed on cells (human, UniProt Q07011 24-255); test: cell-based or functional assay
[3] = molecular target: T1, human CD137 expressed on cells; test: cell-based or functional assay; remark: listed apart in the source
[4] = molecular target: T1, human CD137 expressed on cells; test: cell-based or functional assay; remark: listed apart in the source
[5] = molecular target: T2, biotinylated human PD-L1 (human, UniProt Q9NZQ7 19-238, limits assumed, biotinylated); test: competition ELISA; coated human PD-1 as competitor; biotinylated human PD-L1 pre-incubated with inhibitor
T2 construct: also called biotinylated PD-L1

[6] = molecular target: T2, biotinylated human PD-L1; test: competition ELISA; coated human B7.1 as competitor; biotinylated PD-L1 pre-incubated with inhibitor
[7] = molecular target: T1, human CD137 expressed on cells; test: cell-based or functional assay; remark: listed apart in the source
[8] = molecular target: T3, human serum albumin (human, UniProt P02768 25-609); test: SPR (Biacore T200); SA amine-coupled; pH 5.5
T3 construct: Amine-coupled to a CM5 chip; assay at pH 5.5; also called HSA; human SA

[9] = molecular target: T1, human CD137 expressed on cells; test: cell-based or functional assay; remark: listed apart in the source
[10] = molecular target: T1, human CD137 expressed on cells; test: cell-based or functional assay; remark: listed apart in the source
[11] = molecular target: T1, human CD137 expressed on cells; test: cell-based or functional assay; remark: listed apart in the source
[12] = molecular target: human PD-L1-Fc chimeric protein (human, UniProt Q9NZQ7 19-239); test: SPR (Biacore T200); PD-L1-Fc captured by anti-human Fc

B1: PRO1060: 33-03-G02 IgG1 HC with 38_02_A04 sc01 scFV, PD-L1/CD137(scFv) silent Morrison (bispecific antibody)
light: DIQMTQSPSSLSASVGDRVTITCQASQSINDYLAWYQQKPGKAPKLLIYKASTLASGVPSRFSGSGSGTDFTLTISSLQPEDFATYYCQQGYIITDIDNVFGTGTKVTVLGTVAAPSVFIFPPSDEQLKSGTASVVCLLNNFYPREAKVQWKVDNALQSGNSQESVTEQDSKDSTYSLSSTLTLSKADYEKHKVYACEVTHQGLSSPVTKSFNRGEC
heavy: QVQLQESGPGLVKPSETLSLTCKVSGFSFSSGYDMCWIRQPPGKGLEWIGCVVAGSVDITYYASWAKGRVTISVDSSKNQFSLKLSSVTAADTAVYYCARKDAYSDAFNLWGQGTLVTVSSASTKGPSVFPLAPSSKSTSGGTAALGCLVKDYFPEPVTVSWNSGALTSGVHTFPAVLQSSGLYSLSSVVTVPSSSLGTQTYICNVNHKPSNTKVDKRVEPKSCDKTHTCPPCPAPEAAGGPSVFLFPPKPKDTLMISRTPEVTCVVVDVSHEDPEVKFNWYVDGVEVHNAKTKPREEQYNSTYRVVSVLTVLHQDWLNGKEYKCKVSNKALGAPIEKTISKAKGQPREPQVYTLPPSREEMTKNQVSLTCLVKGFYPSDIAVEWESNGQPENNYKTTPPVLDSDGSFFLYSKLTVDKSRWQQGNVFSCSVMHEALHNHYTQKSLSLSPGKGGGGSGGGGSIQMTQSPSSLSASVGDRVTITCQASQSINNVLAWYQQKPGKAPKLLIYRASTLASGVPSRFSGSGSGTDFTLTISSLQPEDFATYYCQSSYGNYGDFGTGTKVTVLGGGGGSGGGGSGGGGSGGGGSQVQLQESGPGLVKPSETLSLTCKVSGFSFSNSYWICWIRQPPGKGLEWIGCTFVGSSDSTYYANWAKGRVTISVDSSKNQFSLKLSSVTAADTAVYYCARHPSDAVYGYANNLWGQGTLVTVSS
notes: IgG-scFv fusion, scFv on the heavy chain; also called Morrison-H
[1]
  IC50 (ng/ml), neutralization of PD-L1/PD-1 interaction, NFAT-luciferase reporter gene assay: 133 ng/mL
[2]
  EC50 in ng/ml, CD137 activation, NFkB-luciferase Jurkat reporter assay, HCC827 with IFNy stimulation, 24h: 17.5 ng/mL
  EC50 in ng/ml, CD137 activation, NFkB-luciferase Jurkat reporter assay, HCC827 without IFNy stimulation, 24h: 13.6 ng/mL
[3]
  EC50 in ng/ml, CD137 activation, NFkB-luciferase Jurkat reporter assay, PD-L1 expressing CHO cells, 6h: 56.4 ng/mL
[4]
  EC50 in ng/ml, CD137 activation, NFkB-luciferase Jurkat reporter assay, PD-L1 expressing CHO cells, 24h: 80.8 ng/mL
[5]
  IC50: 0.00567 µg/mL
[6]
  IC50: 0.0174 µg/mL

B2: PRO1013 (anti-PD-L1 scFv, CDR set of clone 37-20-B03 grafted on a VH1 framework) (scFv)
chain: DIQMTQSPSSLSASVGDRVTITCQASQSIGTYLAWYQQKPGKAPKLLIYRAFILASGVPSRFSGSGSGTDFTLTISSLQPEDFATYYCQSNFYSDSTTIGPNAFGTGTKVTVLGGGGGSGGGGSGGGGSGGGGSQVQLVQSGAEVKKPGASVKVSCKASGFSFNSDYWIYWVRQAPGQGLEWMGSIYGGSSGNTQYASWAQGRVTMTRDTSISTAYMELSSLRSEDTAVYYCARGYVDYGGATDLWGQGTLVTVSS
[1]
  IC50 (ng/ml), neutralization of PD-L1/PD-1 interaction, NFAT-luciferase reporter gene assay: 21.3 ng/mL
[5]
  IC50: 0.00057 µg/mL
[6]
  IC50: 0.00405 µg/mL

B3: PRO963 (= PRO1051): 38_02_A04 sc01 scDb-i/33-03-G02 sc01 scDb-o/19-01-H04-sc03 scFv (other)
chain: DIQMTQSPSSLSASVGDRVTITCQASQSINDYLAWYQQKPGKAPKLLIYKASTLASGVPSRFSGSGSGTDFTLTISSLQPEDFATYYCQQGYIITDIDNVFGTGTKVTVLGGGGGSQVQLQESGPGLVKPSETLSLTCKVSGFSFSNSYWICWIRQPPGKGLEWIGCTFVGSSDSTYYANWAKGRVTISVDSSKNQFSLKLSSVTAADTAVYYCARHPSDAVYGYANNLWGQGTLVTVSSGGGGSGGGGSGGGGSGGGGSIQMTQSPSSLSASVGDRVTITCQASQSINNVLAWYQQKPGKAPKLLIYRASTLASGVPSRFSGSGSGTDFTLTISSLQPEDFATYYCQSSYGNYGDFGTGTKVTVLGGGGGSQVQLQESGPGLVKPSETLSLTCKVSGFSFSSGYDMCWIRQPPGKGLEWIGCVVAGSVDITYYASWAKGRVTISVDSSKNQFSLKLSSVTAADTAVYYCARKDAYSDAFNLWGQGTLVTVSSGGGGSGGGGSIQMTQSPSSLSASVGDRVTITCQSSESVYSNNQLSWYQQKPGQPPKLLIYDASDLASGVPSRFSGSGSGTDFTLTISSLQPEDFATYYCAGGFSSSSDTAFGGGTKLTVLGGGGGSGGGGSGGGGSGGGGSEVQLVESGGGLVQPGGSLRLSCAASGFSLSSNAMGWVRQAPGKGLEYIGIISVGGFTYYASWAKGRFTISRDNSKNTVYLQMNSLRAEDTATYFCARDRHGGDSSGAFYLWGQGTLVTVSS
notes: Trispecific scTriabody (scDb-scFv): PD-L1 x CD137 x serum albumin
[7]
  max. activation (%), NF-kB reporter gene, CHO-PD-L1; HSA: yes, 24h: 369%
[1]
  IC50 (ng/ml), neutralization of PD-L1/PD-1 interaction, NFAT-luciferase reporter gene assay, with HSA: 275 ng/mL
[8]
  binding result: binds

B4: PRO1123: 38-02-A04 sc05 IF scDb-i/33_03_G02 sc01 scDb-o (bispecific antibody)
chain: DIQMTQSPSSLSASVGDRVTITCQASQSINDYLAWYQQKPGKAPKLLIYKASTLASGVPSRFSGSGSGTDFTLTISSLQPEDFATYYCQQGYIITDIDNVFGTGTKVTVLGGGGGSQVQLQESGPGLVKPSETLSLTCKVSGFSFSNSYWICWVRQPPGKGLEWIGCTFVGSSDSTYYANWAKGRVTISVDSSKNQVSLKLSSVTAADTAVYFCARHPSDAVYGYANNLWGQGTLVTVSSGGGGSGGGGSGGGGSGGGGSIQMTQSPSSLSASVGDRVTITCQASQSINNVLAWYQQKPGKPPKLLIYRASTLASGVPSRFSGSGSGTDFTLTISSLQPEDFATYYCQSSYGNYGDFGTGTKVTVLGGGGGSQVQLQESGPGLVKPSETLSLTCKVSGFSFSSGYDMCWIRQPPGKGLEWIGCVVAGSVDITYYASWAKGRVTISVDSSKNQFSLKLSSVTAADTAVYYCARKDAYSDAFNLWGQGTLVTVSS
notes: scDb
[9]
  EC50 in ng/ml, CD137 activation, NFkB-luciferase Jurkat reporter assay, HCC827 cells without IFNg: 16.1 ng/mL
[7]
  max. activation (%), NF-kB reporter gene, CHO-PD-L1; HSA: no: 219%
  max. activation (%), NF-kB reporter gene, HCC827 +IFNg; HSA: no: 154%
  max. activation (%), NF-kB reporter gene, HCC827 -IFNg; HSA: no: 123%
[10]
  EC50 in ng/ml, CD137 activation, NFkB-luciferase Jurkat reporter assay, CHO-PD-L1 cells: 5.75 ng/mL
[11]
  EC50 in ng/ml, CD137 activation, NFkB-luciferase Jurkat reporter assay, HCC827 cells stimulated with IFNg: 11.9 ng/mL
[12]
  binding result: binds

B5: PRO1124: 38-02-A04 sc06 Full scDb-i/33_03_G02 sc01 scDb-o (bispecific antibody)
chain: B4 chain with V140A, V190K, I261L
notes: scDb, STR graft of the CD137 domain
[9]
  EC50 in ng/ml, CD137 activation, NFkB-luciferase Jurkat reporter assay, HCC827 cells without IFNg: 5.62 ng/mL
[7]
  max. activation (%), NF-kB reporter gene, CHO-PD-L1; HSA: no: 229%
  max. activation (%), NF-kB reporter gene, HCC827 +IFNg; HSA: no: 188%
  max. activation (%), NF-kB reporter gene, HCC827 -IFNg; HSA: no: 113%
[10]
  EC50 in ng/ml, CD137 activation, NFkB-luciferase Jurkat reporter assay, CHO-PD-L1 cells: 3.68 ng/mL
[11]
  EC50 in ng/ml, CD137 activation, NFkB-luciferase Jurkat reporter assay, HCC827 cells stimulated with IFNg: 4.83 ng/mL
[12]
  binding result: binds

B6: PRO830 (anti-PD-L1 scFv, CDR set of clone 33-03-G02 grafted on a VH4 framework) (scFv)
chain: DIQMTQSPSSLSASVGDRVTITCQASQSINDYLAWYQQKPGKAPKLLIYKASTLASGVPSRFSGSGSGTDFTLTISSLQPEDFATYYCQQGYIITDIDNVFGTGTKVTVLGGGGGSGGGGSGGGGSGGGGSQVQLQESGPGLVKPSETLSLTCKVSGFSFSSGYDMCWIRQPPGKGLEWIGCVVAGSVDITYYASWAKGRVTISVDSSKNQFSLKLSSVTAADTAVYYCARKDAYSDAFNLWGQGTLVTVSS
[1]
  IC50 (ng/ml), neutralization of PD-L1/PD-1 interaction, NFAT-luciferase reporter gene assay: 42.9 ng/mL
[5]
  IC50: 0.0034 µg/mL
[6]
  IC50: 0.0129 µg/mL

B7: PRO1059: 33-03-G02 IgG1 LC with 38_02_A04 sc01 scFV, PD-L1/CD137(scFv) silent Morrison (bispecific antibody)
light: DIQMTQSPSSLSASVGDRVTITCQASQSINDYLAWYQQKPGKAPKLLIYKASTLASGVPSRFSGSGSGTDFTLTISSLQPEDFATYYCQQGYIITDIDNVFGTGTKVTVLGTVAAPSVFIFPPSDEQLKSGTASVVCLLNNFYPREAKVQWKVDNALQSGNSQESVTEQDSKDSTYSLSSTLTLSKADYEKHKVYACEVTHQGLSSPVTKSFNRGECGGGGSGGGGSIQMTQSPSSLSASVGDRVTITCQASQSINNVLAWYQQKPGKAPKLLIYRASTLASGVPSRFSGSGSGTDFTLTISSLQPEDFATYYCQSSYGNYGDFGTGTKVTVLGGGGGSGGGGSGGGGSGGGGSQVQLQESGPGLVKPSETLSLTCKVSGFSFSNSYWICWIRQPPGKGLEWIGCTFVGSSDSTYYANWAKGRVTISVDSSKNQFSLKLSSVTAADTAVYYCARHPSDAVYGYANNLWGQGTLVTVSS
heavy: QVQLQESGPGLVKPSETLSLTCKVSGFSFSSGYDMCWIRQPPGKGLEWIGCVVAGSVDITYYASWAKGRVTISVDSSKNQFSLKLSSVTAADTAVYYCARKDAYSDAFNLWGQGTLVTVSSASTKGPSVFPLAPSSKSTSGGTAALGCLVKDYFPEPVTVSWNSGALTSGVHTFPAVLQSSGLYSLSSVVTVPSSSLGTQTYICNVNHKPSNTKVDKRVEPKSCDKTHTCPPCPAPEAAGGPSVFLFPPKPKDTLMISRTPEVTCVVVDVSHEDPEVKFNWYVDGVEVHNAKTKPREEQYNSTYRVVSVLTVLHQDWLNGKEYKCKVSNKALGAPIEKTISKAKGQPREPQVYTLPPSREEMTKNQVSLTCLVKGFYPSDIAVEWESNGQPENNYKTTPPVLDSDGSFFLYSKLTVDKSRWQQGNVFSCSVMHEALHNHYTQKSLSLSPGK
notes: IgG-scFv fusion, scFv on the light chain; also called Morrison-L
[1]
  IC50 (ng/ml), neutralization of PD-L1/PD-1 interaction, NFAT-luciferase reporter gene assay: 93.8 ng/mL
[5]
  IC50: 0.00454 µg/mL
[6]
  IC50: 0.029 µg/mL
